Our source for the self-cleavage values is the RNAGym collection of RNA variant scans (doi:10.7554/elife.90254).

To fix the notation:
B1: LINE1-full (parent)
chain: UACGUAGGUGGUUUUCCCCUGAUAGUGCUAAGGGGGCCUGGAAGUUUGGACUGGGCAGAGCUCAACACAGCGUGGCAAAGUGGCUGUGGCUAGACUGCCUCUCUGGAUUCCUCGUCACUCAGCAGGGCAUCUCUGAGAGAAAUGCC

Variants of B1 are the subject of this data set. In words: self-cleavage, relative activity (ratio to wild type); higher = more cleavage; in vitro, sequencing; the parent is a self-cleaving ribozyme.
For U20A A141G, the self-cleavage is 1.43.
Under A22G A92U stands 0.79; under A22G A92G, 0.2.
Turning to U20A G25A, the self-cleavage is 0.37.
The figure for A22G A65G is 0.08.
The figure for C19U U39A is 1.07; for C19U U39C it is 0.65; for G21A U100C it is 1.72.
Under U20C A136U stands 1.51.
U20A C90U: the self-cleavage was determined as 0.02.
The figure for U20C C131U is 1.18.
The figure for U20G A140G is 0.96; for U20G A140U it is 1.23; for G21A C145U it is 0.32.
Under U20C G54A stands 0.65; under C19U U87A, 0.09; under C19U U87C, 0.06.
Consider U20C A142C, for which the self-cleavage came to 1.88.
With U20C A142G, the self-cleavage amounted to 1.36.
The figure for U20C A142U is 2.2; for U20C A42G it is 1.25; for G21A A67C it is 0.02.
Consider U20C U81C, for which the self-cleavage turned out to be 1.13.
Consider U20C U81A, for which the self-cleavage was determined as 1.44.
Under U20G U96G stands 0; under G21U U73C, 2.04; under U20G C61U, 0.09.
Turning to A22G A129C, the self-cleavage is 0.27.
The figure for U20C A65U is 0.14.
For U20A U115A, the self-cleavage worked out at 2.02.
Under U20C C128U stands 1.24; under U20G A107G, 0.72.
The figure for A22G C63A is 0.05; for U20C U85A it is 0.11.
Under U20C U85C stands 0.38.
For the variant U20A G33U, the self-cleavage was 0.66.
For the variant U20A G53A, the self-cleavage is 1.01.
Under U20C U73C stands 1.62.
In the case of U20C U73A, the self-cleavage came out at 1.56.
Take U20G G27A: the self-cleavage came to 0.92.
The figure for U20A G32C is 1.33; for U20A G137U it is 0.85; for G21A A57C it is 0.09.
The figure for G21A A57U is 0.02.
The figure for U20C U62A is 0.11.
For the variant U20C U62G, the self-cleavage amounted to 0.03.
Regarding G21A U102C, the self-cleavage turned out to be 1.79.
On to A22C U115A, for which the self-cleavage was 1.46.
Regarding U20C A92G, the self-cleavage stood at 0.08.
For U20C A92U, the self-cleavage was found to be 0.72.
Under U20A C68U stands 0.35; under U20A G97C, 0.34.
Consider G21U A136G, for which the self-cleavage turned out to be 1.84.
Under U20A G58C stands 0.08; under U20C C146U, 1.27.
Under A22C A30G stands 1.18.
The figure for A22G A64U is 0.41; for A22G A64G it is 0.34.
Consider U20A U26A, for which the self-cleavage was determined as 1.23.
The figure for G21U G35A is 1.36; for U20C G72U it is 0.9; for U20C A24U it is 1.37.
For U20C A24G, the self-cleavage worked out at 1.11.
The figure for U20C A124G is 1.06; for U20C A124U it is 1.17; for A22C U143C it is 1.41.
In the case of A22C A50U, the self-cleavage is 1.02.
Regarding U20A A138G, the self-cleavage amounted to 1.27.
For the variant U20A U85A, the self-cleavage was determined as 0.11.
The figure for U20A U85G is 0.1.
In the case of U20A U62A, the self-cleavage was found to be 0.07.
Turning to A22G A67G, the self-cleavage was 0.63.
The figure for A22G A67U is 0.23.
Regarding A22G A136G, the self-cleavage stood at 1.17.
Turning to A22G A136U, the self-cleavage turned out to be 0.87.
Under A22G A136C stands 1.49; under U20G U134C, 0.64.
The figure for U20C U52G is 1.81; for U20C U52C it is 1.76.
Under G21A A65C stands 0.02; under G21U C56G, 0.02; under U20C C66U, 0.
As for C19U U47A, the self-cleavage was found to be 0.69.
For the variant G21A C120A, the self-cleavage turned out to be 1.11.
On to U20G U29C, for which the self-cleavage turned out to be 1.36.
Under U20G U29A stands 0.8; under U20G A69U, 0; under U20C G33A, 0.99.
As to U20C G33C, the self-cleavage stood at 0.74.
Under G21U A94U stands 0.39; under U20C U47C, 1.57; under A22G A30U, 0.58.
The figure for A22G A30G is 0.86; for G21A G135A it is 1.22.
Regarding U20C A30U, the self-cleavage was 1.18.
For U20C A30G, the self-cleavage worked out at 1.39.
Under A22G A117U stands 1.29.
Under A22G A117G stands 0.97; under G21A U119C, 1.25.
Under U20A U39A stands 0.84; under G21A U132C, 1.63; under G21C U132C, 1.27.
For U20A G35C, the self-cleavage stood at 1.12.
Regarding U20G U100C, the self-cleavage is 1.06.
Regarding G21A A141G, the self-cleavage was 1.16.
Under U20G U102C stands 1.73; under G21U A42U, 1.03; under G21U A42G, 0.8.
Take U20C G126A: the self-cleavage stood at 1.8.
Take U20C U46C: the self-cleavage is 1.5.
The figure for U20C G86A is 0.11; for U20A U87G it is 0.21.
As for U20A U87C, the self-cleavage is 0.31.
Under U20A U87A stands 0.11; under G21A U91A, 0.37.
As to U20C C84G, the self-cleavage worked out at 0.09.
The figure for C19U U108C is 1.26; for G21A U115G it is 0.96; for G21A U115C it is 2.12.
The figure for A22G A69U is 0.14; for A22G A69G it is 0.59; for U20A A59G it is 0.15.
The figure for U20A U112A is 1.82; for C19U U132C it is 0; for A22G C84U it is 0.24.
As to C19U U62C, the self-cleavage was determined as 0.06.
The figure for U20C U143C is 1.29.
The figure for U20C G135A is 1.48.
Under U20A U134C stands 1.32; under G21U U81C, 1.01.
U20G A136G: the self-cleavage was determined as 1.03.
Consider U20C A78G, for which the self-cleavage is 1.52.
Turning to U20C C110A, the self-cleavage was 0.41.
The figure for G21U C131U is 1.41.
The figure for G21A C118U is 1.07; for C19U G58U it is 0.09.
As to G21U U134A, the self-cleavage was found to be 1.27.
Under G21C stands 0.69; under G21U, 1.1; under G21A, 1.14.
The figure for G21A G114A is 2.07; for C19U U112A it is 1.06; for C19U U112C it is 1.13.
On to U20A C111A, for which the self-cleavage worked out at 1.19.
Under G21A U62C stands 0.05.
Under U20A U45A stands 1.05.
Regarding A22G A78G, the self-cleavage is 0.94.
Under A22G A78U stands 1.85; under U20G U132C, 1.4.
For U20G A64U, the self-cleavage came to 0.71.
As to U20C A59U, the self-cleavage amounted to 0.82.
The figure for U20A C120U is 1.32.
The figure for U20C A141U is 1.36; for U20C A141G it is 1.54.
Take U20A A94G: the self-cleavage was found to be 0.18.
Under A22G A50G stands 0.97; under U20C A67G, 0.74.
The figure for U20C A67U is 0.15; for A22C U46A it is 2.21; for U20A A43C it is 0.84.
As for U20A A43G, the self-cleavage worked out at 1.12.
The figure for U20C U112A is 0.61.
Take U20C U112C: the self-cleavage was 1.4.
Take U20C G44U: the self-cleavage stood at 1.06.
The figure for U20G A42G is 0.67; for U20A U132C it is 1.49; for G21A A124G it is 0.9.
